Laboratory results: patent US8030048B2, “Enantioselective epoxide hydlrolase and method for preparing and enantiopure epoxide using the same” (Korea Ocean Research and Development Institute, priority 2005, dated 2011)
Where “and” joins values, the source holds several entries; their conditions need not be identical. Equal entries are not always repeated.

Experiments:
[1] = Optimum activity conditions of sEEH, nEEH and rEEH; assay type: biochemical
Experimental: After cloning the genes into pET-24a (+) expression vector, the vector was introduced into BL21-CondonPlus(DE3)-RP (Novagen), and then separated by SDS-PAGE. […] Also, the optimum activities of sEEH, nEEH, and rEEH occurred at neutral pH and mesophilic conditions (30 to 40° C.).

[2] = Enantioselective hydrolyzing activity of purified EHases toward SO; assay type: biochemical; settings: for enantiomer preference in hydrolysis of styrene oxide, in words: purified enzyme
Experimental: (§1) Kinetic parameters of the rEEH1, rEEH2, rEEH3, sEEH, nEEH, and rEEH were determined by a GC analysis using (R)- or (S)- styrene oxide substrate. 100 ul of purified EHases were mixed with various concentrations of (R)- or (S)- styrene oxide in a 10 ml tube containing 1 ml of potassium phosphate buffer (100 mM, pH 8.0), and shake-incubated at 200 rpm and a temperature of 30° C. The extraction mixtures were extracted with 2 ml of hexane, and enantiomeric excess [ee; ee=100×(S−R)/(S+R)] toward enantiopure styrene oxide was analyzed with a chiraldex gamma-cyclodextrin trifluoroacetyl(G-TA) capillary GC column. Wherein, the FIG. 8 was diagramed with GC analysis for the hydrolyzing activities of enantioselective EHases (rEEH1, rEEH2, and rEEH3) toward racemic styrene oxide.
(§2) Kinetic parameters were estimated by non-linear regression analysis using a Sigma Plot program, and various substrates as depicted in FIG. 1 were also tested for the enantioselective hydrolyzing activity by rEEH1, rEEH2, rEEH3, sEEH, nEEH, and rEEH.

[3] = substrate: c1ccc([C@@H]2CO2)cc1; assay: Kinetic parameters of purified rEEH by GC analysis with (R)- or (S)-styrene oxide; assay type: biochemical, Rhodobacterium sp. HTCC2654; settings: other: 100 mM potassium phosphate pH 8.0, 30° C.
Experimental: as §1, §2

[4] = substrate: c1ccc([C@H]2CO2)cc1; assay: as above; assay type: biochemical, Rhodobacterium sp. HTCC2654; settings: other: 100 mM potassium phosphate pH 8.0, 30° C.
Experimental: as §1, §2

[5] = substrate: c1ccc([C@@H]2CO2)cc1; assay: Kinetic parameters of purified sEEH by GC analysis with (R)- or (S)-styrene oxide; assay type: biochemical, Sphingopyxis alaskensis; settings: other: 100 mM potassium phosphate pH 8.0, 30° C.
Experimental: as §1, §2

[6] = substrate: c1ccc([C@H]2CO2)cc1; assay: as above; assay type: biochemical, Sphingopyxis alaskensis; settings: other: 100 mM potassium phosphate pH 8.0, 30° C.
Experimental: as §1, §2

[7] = Effects of pH and temperature on the EHase activity of rEEH1, rEEH2 and rEEH3; assay type: biochemical
Experimental: The effect of pH on the EHase activity was measured with 50 mM sodium acetate-acetic acid buffer (pH 4.0 and 6.0), 50 mM MES buffer (pH 6.0 to 7.0), 50 mM Phosphate buffer (pH 7.0 to 9.0), and 50 mM Glycine buffer (pH 9.0 and 10.0), and the optimum reaction temperature on the EHase activity was measured over a temperature of range from 10 to 70° C. at pH 7.5.

[8] = Kinetic parameters of purified EHases by GC analysis, (S)-styrene oxide; assay type: biochemical; settings: (S)-enantiomer of styrene oxide, Table 5
Experimental: as §1, §2

[9] = Kinetic parameters of purified EHases by GC analysis, (R)-styrene oxide; assay type: biochemical; settings: (R)-enantiomer of styrene oxide, Table 5
Experimental: as §1, §2

[10] = Enantioselective hydrolyzing activity of purified EHases toward GPE; assay type: biochemical
Experimental: as §1, §2

[11] = Enantioselective hydrolyzing activity of purified EHases toward EX; assay type: biochemical
Experimental: as §1, §2

[12] = Enantioselective hydrolyzing activity of purified EHases toward EB; assay type: biochemical
Experimental: as §1, §2

[13] = Enantioselective hydrolyzing activity of purified EHases toward ECH; assay type: biochemical
Experimental: as §1, §2

[14] = Substrate selectivity of rEEH1, rEEH2 and rEEH3 toward various epoxide substrates; assay type: biochemical; settings: purified enzyme
Experimental: Also, the substrate selectivity of rEEH1, rEEH2 and rEEH3 toward various epoxide substrates depicted in FIG. 1 was same to Table 4.
as §2

[15] = substrate: c1ccc([C@@H]2CO2)cc1; assay: Kinetic parameters of purified rEEH3 by GC analysis with (R)- or (S)-styrene oxide; assay type: biochemical, Erythrobacter litoralis HTCC2594; settings: other: 100 mM potassium phosphate pH 8.0, 30° C.
Experimental: as §1, §2

[16] = substrate: c1ccc([C@H]2CO2)cc1; assay: as above; assay type: biochemical, Erythrobacter litoralis HTCC2594; settings: other: 100 mM potassium phosphate pH 8.0, 30° C.
Experimental: as §1, §2

B1: Rhodobacterium sp. HTCC2654 epoxide hydrolase rEEH (RH), SEQ ID NO: 32 (Maritimibacter alkaliphilus HTCC2654) (protein)
chain: MNDKTFIETNGIRLATRIEGDGPLVILVHGFPETAYSWRKQASPLVEAGYRVCIPDVRGYGNSDAPEAVSAYAMEVMTRDFLGLAQALSEVPAVIVGHDWGAPLAWNTARLFPEQFRAVAGLSVPYAPPGDVAPIDLYHKLFTDKGRFFYQVYFQDEGVAEAELEADVEDSLAKFYYAWSGDCPPNGWPNDKAHGDPVLKGLPRPDLPLPWLTQDDLDRYAADFRTSGFRGPLNRYRNQREDHAFLKAHPSNPIIQQPSLFLYGDRDPVLTMFRTPPEDLLPKTLADLRGVHRLPGVGHWTQQEAPEAVNKALIDWLATL
notes: soluble-EH-like alpha/beta hydrolase
optimum temperature [1]: 30-40 °C
enantiomer preference in hydrolysis of styrene oxide, in words [2]: hydrolyzed (R)-enantiopure styrene oxide
Km [3]: 5.2 ± 0.3 mM
Vmax [3]: 54.1 µmol/min/mg
kcat [3]: 32 s⁻¹
kcat/Km [3]: 6160 M⁻¹ s⁻¹
Km [4]: 4.1 ± 0.3 mM
Vmax [4]: 11.3 µmol/min/mg
kcat [4]: 6.7 s⁻¹
kcat/Km [4]: 1630 M⁻¹ s⁻¹

B2: Sphingopyxis alaskensis epoxide hydrolase sEEH (Sp), SEQ ID NO: 28 (Sphingopyxis alaskensis RB2256) (protein)
chain: SSAGPSTAITVSAAAAVAAPQDESIRPFHVSIPEEALTDLRRRLAETRWPDREKVSDASQGVQLDRLEPLVRYWGTDYDWRKGEARLNAVPQFITTIDGLDIQFIHIRSKHKGAMPLLMTHGWPGSPFELLKTVGPLTDPTAHGGKAEDAFDLIMPTYPGYGFSGKPNEAWDPARVARAWDVLMKRLGYKNYVSQGGDWGAIISQVLAVQAPEGLLGIHTNMPGTVPPGVLKLVRAKQPAPDSYSPEEKIAYAGLETFYGKGFGYAEMMNTRPQTLGYGLSDSPVGLAAFLYEKIATWTDSGGNPESVLTRDEILDNITLYWLTNTGTSSSRSYWDAAQGPGGPFNAIEISKVPVAVTVFPGEIYRAPRSWGEKSFKKLIYWNEVDKGGHFAAWEQPELFAAEIRAAFRPLREKK
Km [5]: 4 ± 0.3 mM
Vmax [5]: 8.9 µmol/min/mg
kcat [5]: 7.42 s⁻¹
kcat/Km [5]: 1860 M⁻¹ s⁻¹
Km [6]: 5.25 ± 0.3 mM
Vmax [6]: 12.1 µmol/min/mg
kcat [6]: 10.1 s⁻¹
kcat/Km [6]: 1920 M⁻¹ s⁻¹

B3: Erythrobacter litoralis HTCC2594 epoxide hydrolase rEEH3 (EEH3), SEQ ID NO: 17 (Erythrobacter litoralis HTCC2594) (protein)
chain: MPDPASGIAINRVPANGLEFEVAMAGEGDHLALMLHGFPELHFSWRHQMPLLAEMGYRVWAPNMRGYGETTRPTEVRDYALDHLTQDVAALIDASGATKVTLIAHDWGAIIAWYFAILKLRPLERLVIMNVPHPKVLQRELRRWEQIKKSWYVFFFQLPWLPEKRIGADSGKRIGELFAQTSCNPERFGPDVKAVYAAGAARPGAPRAMVNYYRAAMRHRDTIDPGDFRVDVPTLLVWGEEDVALNIRCTEGTEQWVPDITVKRLPNVSHWVQQDAPDEVNAILREWLPKPAPAS
notes: as for B1
optimum temperature (maximum hydrolysis rate) ([7]; 10 to 70° C. at pH 7.5): 45 °C
optimum pH ([7]; activity toward styrene oxide, pH 4.0 to 10.0): 8.0
kcat Km [8]: 1700 M⁻¹ s⁻¹
kcat Km [9]: 1600 M⁻¹ s⁻¹
Hydrolysis rate SO (R) ([2]; (R)-enantiomer): 0.10 (×10^−2) mg/min
Hydrolysis rate SO (S) ([2]; (S)-enantiomer): 0.14 (×10^−2) mg/min
enantiomer preference in hydrolysis of styrene oxide, in words [2]: (S)-styrene oxide was hydrolyzed faster than (R)-styrene oxide
Hydrolysis rate GPE (R) ([10]; (R)-enantiomer): 0.10 (×10^−2) mg/min
Hydrolysis rate GPE (S) ([10]; (S)-enantiomer): 0.10 (×10^−2) mg/min
Hydrolysis rate EX (R) ([11]; (R)-enantiomer): 0.17 (×10^−2) mg/min
Hydrolysis rate EX (S) ([11]; (S)-enantiomer): 0.09 (×10^−2) mg/min
Hydrolysis rate EB (R) ([12]; (R)-enantiomer): 0.08 (×10^−2) mg/min
Hydrolysis rate EB (S) ([12]; (S)-enantiomer): 0.11 (×10^−2) mg/min
Hydrolysis rate ECH (R) ([13]; (R)-enantiomer): 0.26 (×10^−2) mg/min
Hydrolysis rate ECH (S) ([13]; (S)-enantiomer): 0.28 (×10^−2) mg/min
substrate selectivity, in words [14]: hydrolyzed enantioselectively aliphatic epoxides at C-1 position and styrene oxide
Km [15]: 2.61 mM and 2.6 mM
Vmax [15]: 0.29 µmol/min and 0.2 µmol/min
kcat [15]: 4.3 s⁻¹
Km [16]: 3.71 mM and 3.7 mM
Vmax [16]: 0.43 µmol/min and 0.4 µmol/min
kcat [16]: 6.5 s⁻¹
